Measured values published in patent US20190389941A1 (GLIKNIK, published 2019).

Molecular target: T1, G990 (Homo sapiens (Human), UniProt P0DOX5 218-449 = IgG part)
T1 construct: GL-2045 background (IgG1 hinge-CH2-CH3-IgG2 hinge) with G236R; homodimeric unit that multimerizes; also called stradomer G990
Assay: BLI (ForteBio Octet), His-tagged receptor on sensor tip; summary grade
Procedure: Binding of general stradomers or parent stradomer GL-2045 to FcγRI, FcγRIIb, FcγRIIIa, FcγRIIa, was assessed. RU values of dissociation were measured by biolayer interferometry using a ForteBio Octet instrument. His-tagged receptor proteins were bound to the sensor tip in 1X kinetic analysis buffer from ForteBio after which the on rate of the receptor/protein was measured by transferring the sensor tip to a 1x kinetics buffer containing the purified stradomer of choice. Off rate was measured by transferring the sensor tip to a 1X kinetics buffer, and RU value was calculated from the measured maximum binding using the ForteBio software. Biolayer interferometry detects the binding between a ligand immobilized on the biosensor tip surface and an analyte in solution. When binding occurs it produces an increase in optical thickness at the biosensor tip, which results in a wavelength shift (detected as a response unit of “RU”). The maximum binding level (RU max) is the maximum possible amount of sample binding at equilibrium that saturates the amount of ligand on the sensor surface. The RU 300 is the residual sample binding after 300 seconds of dissociation and is useful to characterize the rate of dissociation of the test article from the test ligand.

Row | binding result | Binder
1 | no binding | FcγRIIa (receptor, UniProt P12318 34-217, looked up, also called His-tagged receptor protein; CD32; not shown: His tag) QAAAPPKAVLKLEPPWINVLQEDSVTLTCQGARSPESDSIQWFHNGNLIPTHTQPSYRFKANNNDSGEYTCQTGQTSLSDPVHLTVLSEWLVLQTPHLEFQEGETIMLRCHSWKDKPLVKVTFFQNGKSQKFSHLDPTFSIPQANHSHSGDYHCTGNIGYTLFSSKPVTITVQVPSMGSSSPMG
2 | no binding | FcγRIIb (receptor, UniProt P31994 43-217, looked up, also called His-tagged receptor protein; CD32; not shown: His tag) TPAAPPKAVLKLEPQWINVLQEDSVTLTCRGTHSPESDSIQWFHNGNLIPTHTQPSYRFKANNNDSGEYTCQTGQTSLSDPVHLTVLSEWLVLQTPHLEFQEGETIVLRCHSWKDKPLVKVTFFQNGKSKKFSRSDPNFSIPQANHSHSGDYHCTGNIGYTLYSSKPVTITVQAP
